T1: 35S-labelled transcription-translation product of p28 Bap31 cDNA
T1 chain: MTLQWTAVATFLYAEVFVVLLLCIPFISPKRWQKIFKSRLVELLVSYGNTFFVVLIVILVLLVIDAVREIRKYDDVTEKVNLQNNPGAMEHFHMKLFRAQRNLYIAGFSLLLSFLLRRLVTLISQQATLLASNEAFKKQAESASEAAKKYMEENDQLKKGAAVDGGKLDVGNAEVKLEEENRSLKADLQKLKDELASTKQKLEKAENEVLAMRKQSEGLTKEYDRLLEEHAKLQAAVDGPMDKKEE

B1: FLICE (caspase-8) (protein)
chain: SESQTLDKVYQMKSKPRGYCLIINNHNFAKAREKVPKLHSIRDRNGTHLDAGALTTTFEELHFEIKPHDDCTVEQIYEILKIYQLMDHSNMDCFICCILSHGDKGIIYGTDGQEAPIYELTSQFTGLKCPSLAGKPKVFFIQACQGDNYQKGIPVETDSEEQPYLEMDLSSPQTRYIPDEADFLLGMATVNNCVSYRNPAEGTWYIQSLCQSLRERCPRGDDILTILTEVNYEVSNKDDKKNMGKQMPQPTFTLRKKLVFPSD
B2: ICE (caspase-1) (protein)
chain: NPAMPTSSGSEGNVKLCSLEEAQRIWKQKSAEIYPIMDKSSRTRLALIICNEEFDSIPRRTGAEVDITGMTMLLQNLGYSVDVKKNLTASDMTTELEAFAHRPEHKTSDSTFLVFMSHGIREGICGKKHSEQVPDILQLNAIFNMLNTKNCPSLKDKPKVIIIQACRGDSPGVVWFKDSVGVSGNLSLPTTEEFEDDAIKKAHIEKDFIAFCSSTPDNVSWRHPTMGSVFIGRLIEHMQEYACSCDVEEIFRKVRFSFEQPDGRAQMPTTERVTLTRCFYLFPGH

Target: T1, 35S-labelled transcription-translation …

| Protein | amount of p20 cleavage product (Phosphorimager) | cleavage of 35S-labelled p28 Bap31 in vitro (SDS-PAGE) |
| --- | --- | --- |
| B1 | p28 Bap31 was more sensitive to cleavage by FLICE (caspase-8) than ICE (caspase-1) | – |
| B2 | – | ICE (caspase-1), on the other hand, generated two products (denoted “a” and “b”) whose apparent sizes in SDS gels (approximately 27 kDA and 20 kDa, respectively) |
